# Data as given in PMC5430844, “RRM domain of ALS/FTD-causing FUS characteristic of irreversible unfolding spontaneously self-assembles into amyloid fibrils” (Scientific Reports, 2017).
# Assays:
# [1] = biological target: the molecule itself; assay: 1D 1H NMR line broadening and intensity loss; N-terminal LC domain alone, 40 µM, 25 °C, 1 mM phosphate buffer, pH 6.8 compared with pH 5.0; non-exchangeable protons over −0.4–1.8 ppm
# [2] = biological target: the molecule itself; assay: time-lapsed intrinsic UV and visible fluorescence, ThT-binding fluorescence, far-UV CD and negative-stain EM of an incubated sample; RRM alone, 40 µM in 1 mM phosphate buffer pH 6.8, incubated at 25 °C up to 12 days; EM at 3, 6 and 10 days; monomer to amyloid fibrils
Protein,binding result [1],binding result [2]
"FUS N-terminal low-sequence complexity (LC) domain (1–267) (domain or fragment, human, UniProt P35637 1-267, looked up, Fused in Sarcoma/Translocated in Sarcoma (FUS), 526 residues, N-terminal LC domain, residues 1-267 (QGSY-rich prion-like region 1–165 and G-rich region 166–267); Cloned by PCR from FUS cDNA into a modified pET28a; also called N-terminal LC domain; FUS (1–267)) MASNDYTQQATQSYGAYPTQPGQGYSQQSSQPYGQQSYSGYSQSTDTSGYGQSSYSSYGQSQNTGYGTQSTPQGYGSTGGYGSSQSSQSSYGQQSSYPGYGQQPAPSSTSGSYGSSSQSSSYGQPQSGSYSQQPSYGGQQQSYGQQQSYNPPQGYGQQNQYNSSSGGGGGGGGGGNYGQDQSSMSSGGGSGGGYGNQDQSGGGGSGGYGQQDRGGRGRGGSGGGGGGGGGGYNRSSGGYEPRGRGGGRGGRGGMGGSDRGGFNKFGG",binds,
"FUS RRM domain (282–371) (domain or fragment, human, UniProt P35637 282-371, looked up, Fused in Sarcoma/Translocated in Sarcoma (FUS), 526 residues, RNA-recognition motif, residues 282-371 (N-terminal residue Ser282); Cloned by PCR from FUS cDNA into a modified pET28a; The introduction gives the RRM as 285–371, but the construct used is 282–371; also called FUS (282–371); RNA-recognition motif) SDNNTIFVQGLGENVTIESVADYFKQIGIIKTNKKTGQPMINLYTDRETGKLKGEATVSFDDPPSAKAAIDWFDGKEFSGNPIKVSFATR",,binds
